Source: patent publication US20050202430A1 (Novartis, published 2005)

Biological target: T1, alpha9 integrin on transfected SW480 colon carcinoma cells (UniProt Q13797 30-1035; P05556 21-798)
T1 construct: whole, on cells; also called α9 integrin; alpha9 beta1 integrin
Experiment: adhesion of transfected SW480 cells to wells coated with tenascin-W
Source text: IDG tripeptide motifs have been reported to be the recognition sequence for alpha9 beta1 integrin (Yokosaki et al., 1998). Since mouse tenascin-W contains three IDG motifs we investigated whether α9 integrin could be the receptor for tenascin-W. We plated SW480 colon carcinoma cells transfected either with an empty vector or with the vector containing the cDNA for α9 integrin (Yokosaki et al. J Biol. Chem. 1996 Sep. 27;271(39):24144-50) on tenascin-W coated wells.

T1 sequence (Q13797 30-1035, chain 1 of 2): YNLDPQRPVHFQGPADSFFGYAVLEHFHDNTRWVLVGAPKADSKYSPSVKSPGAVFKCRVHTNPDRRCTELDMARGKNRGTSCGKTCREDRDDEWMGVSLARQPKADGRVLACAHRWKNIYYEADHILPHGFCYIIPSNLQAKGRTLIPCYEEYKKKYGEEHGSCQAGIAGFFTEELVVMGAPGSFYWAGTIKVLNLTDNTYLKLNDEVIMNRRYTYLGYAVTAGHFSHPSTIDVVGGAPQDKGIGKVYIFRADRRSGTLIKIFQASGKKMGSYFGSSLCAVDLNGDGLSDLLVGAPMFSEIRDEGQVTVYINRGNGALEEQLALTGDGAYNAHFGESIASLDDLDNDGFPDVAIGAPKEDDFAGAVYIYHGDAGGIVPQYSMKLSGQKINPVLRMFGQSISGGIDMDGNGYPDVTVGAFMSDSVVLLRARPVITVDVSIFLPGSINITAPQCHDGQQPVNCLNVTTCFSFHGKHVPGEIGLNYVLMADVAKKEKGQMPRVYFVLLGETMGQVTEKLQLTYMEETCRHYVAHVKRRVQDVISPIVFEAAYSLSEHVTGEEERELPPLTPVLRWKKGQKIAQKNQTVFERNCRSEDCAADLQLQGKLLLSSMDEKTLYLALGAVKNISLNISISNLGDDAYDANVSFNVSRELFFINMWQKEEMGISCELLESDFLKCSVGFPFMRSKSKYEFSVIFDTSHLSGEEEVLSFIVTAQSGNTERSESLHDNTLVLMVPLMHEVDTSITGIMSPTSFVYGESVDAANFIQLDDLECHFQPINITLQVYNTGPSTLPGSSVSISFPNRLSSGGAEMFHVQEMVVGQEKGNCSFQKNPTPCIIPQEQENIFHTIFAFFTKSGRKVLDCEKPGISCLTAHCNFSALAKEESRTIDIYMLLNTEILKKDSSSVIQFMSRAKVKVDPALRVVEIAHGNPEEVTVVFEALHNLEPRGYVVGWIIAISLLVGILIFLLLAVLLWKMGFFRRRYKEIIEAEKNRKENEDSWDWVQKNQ
T1 sequence (P05556 21-798, chain 2 of 2): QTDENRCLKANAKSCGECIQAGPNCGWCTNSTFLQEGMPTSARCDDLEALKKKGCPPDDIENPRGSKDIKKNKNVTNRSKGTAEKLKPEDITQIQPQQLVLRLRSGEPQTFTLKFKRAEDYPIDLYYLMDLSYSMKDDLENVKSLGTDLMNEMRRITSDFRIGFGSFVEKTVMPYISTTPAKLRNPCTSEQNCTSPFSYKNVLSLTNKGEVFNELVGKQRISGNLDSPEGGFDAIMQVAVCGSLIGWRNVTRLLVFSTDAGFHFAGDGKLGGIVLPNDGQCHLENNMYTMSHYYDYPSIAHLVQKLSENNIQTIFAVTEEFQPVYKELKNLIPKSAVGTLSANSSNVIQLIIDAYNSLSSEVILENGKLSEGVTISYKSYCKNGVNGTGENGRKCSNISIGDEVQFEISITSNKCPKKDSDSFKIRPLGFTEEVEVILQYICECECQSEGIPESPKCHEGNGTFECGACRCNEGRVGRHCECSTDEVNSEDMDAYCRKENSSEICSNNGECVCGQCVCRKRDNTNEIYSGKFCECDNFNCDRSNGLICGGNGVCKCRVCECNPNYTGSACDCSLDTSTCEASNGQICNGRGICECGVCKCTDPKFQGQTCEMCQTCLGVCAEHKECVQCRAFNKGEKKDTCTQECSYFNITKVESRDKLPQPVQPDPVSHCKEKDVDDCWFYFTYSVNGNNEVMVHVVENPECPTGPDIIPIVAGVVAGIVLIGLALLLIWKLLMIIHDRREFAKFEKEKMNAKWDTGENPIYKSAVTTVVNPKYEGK

- binding result: no binding
B1: purified full-length recombinant mouse tenascin-W (C-terminal 6xHis-tag, secreted from HEK 293 cells) (ligand)
chain: TPESPGCSNKEQQVTVSHTYKIDVPKSALVQVETDPQSLSDDGTSLLAPGEDGEEQNIIFRHNIRLQTPQKNCDLADSVQDLLARMKKLEEEMAELKEQCNTNRCCQGAADLSRHCSGHGTFLPETCSCHCDQGWEGADCDQPTCPGACNGHGRCVDGQCVCDAPYVGVDCAYAACPQDCSGHGVCVQGVCQCHEDFTAEDCSEQRCPGDCSGNGFCDTGECYCEMGFTGPDCSQVVAPQGLQLLKSTENSLLVSWEPSSEVDYYLLSYYPLGKEQATKQVRVPKEQHTYDITGLLPGTKYIVTLRNVKKDISSSPQHLLATTDLAVLGTAWVNEETETSLDVEWENPLTEVDYYKLRYGPLTGQEVTEVTVPKSRDPKSRYDITGLQPGTEYKITVVPIRGDLEGKPILLNGRTEIDGPTNVVTNQVTEDTASVSWDPVRADIDKYVVRYIAPDGETKEKAVPKDQSSTVLTGLKPGEAYKVFVWAERGNQGSKKADTKALTEIDSPENLVTDRVTENSLSVSWDPVEADIDRYVVSYTSVDGETKQVPVKKDQRSTVLTGLSPGVEYKVYVWAEKGDRESKKANTKAPTDIDSPKNLVTDQVTENTLSVSWDPVQANIDRYMVSYTSADGETREVPVPKEKSSTVLTGLRPGVEYKVHVWAQKGTQESRKANTKAPTDIDGPKNLVTDQVTETTLSVSWDPVEADIDRYMVRYTSPDGETKEVPVSKDKSSTVLRGLRPGVEYKVDVWAQKGAQDSRKANTKAPTDIDSPKNLVTEQVAESTATVSWDPVEADIDRYVVRYTSADGETREIPVRKEKSSTVLTGLRPGVEYTVQVWAQKGARESKKAKTKAPTEIDSPKNLVTNRVTENTATISWDPVRANIDRYMVRYTSADGETKEIPVSKDQSNTILTGLKPGMEYTIHVWAQKGARESKKADTKALTEIDPPRNLRPFGVTHSGGVLTWLPPSAQIDGYILTYQFPNGTVKGVELPRGQQRFELQDLEQGVTYPVSLVAFKGNQRSRTVSTTLSTVDARFPHPSDCSQVQQNTNAASGLYTIYLNGDASRPMQVYCDMDTDGGGWIVFQRRNTGQLDFFKRWRSYVEGFGDPMKEFWLGLDKLHNLTTGTTTRYEVRADLQTFNESAYAVYDFFQVASSKERYKLSVGKYRGTAGDALTYHNGWKFTTFDRDSDIALSNCALTHHGGWWYKNCHLANPNGKYGETKHSEGVNWEPWKGHEFSIPYVELKIRPFGYSRDRFSGRKKRSIGKARMFHHHHHH
notes: also called full length mouse tenascin-W protein; purified tenascin-W
